Twelve sequences from the DeepSol protein solubility set can be followed below.

This series is described as follows: soluble on expression in E. coli; label from the status in PepcDB or PDB records.
As to “MGHHHHHHSHMSETTQTSQSLYQALWNSADVLRSKMDANDYKSYLLGMVFYKYLSDKMLFFVAETMEEETESLDEALAVYRKYYEDEETHEDLLAVITDEMSYAIHPDLTFTALVERVNDGSFQLEDLAQGFRDIEQSDELYENLFEDIDLYSKKLGATPQKQNQTVAAVMKELAVLDVAGHAGDMLGDAYEYLIGQFATDSGKKAGEFYTPQPVAKLMTQIAFLGREDKQGFTLYDATMGSGSLLLNAKRYSRQPQTVVYFGQELNTSTYNLARMNMILHGVPIENQFLHNADTLDEDWPTQEPTNFDGVLMNPPYSAKWSASSGFMDDPRFSPFGKLAPKSKADFAFLLHGYYHLKQDNGVMAIVLPHGVLFRGNAEGTIRKALLEEGAIDTVIGLPANIFFNTSIPTTVIILKKNRTNRDVYFIDASKEFDKGKNQNIMTDAHIEKILNAYKSREDIDKFAHLASFEEIVENDYNLNIPRYVDTFEEEEVEPLTEIVAKINQTNATIESQTASLLDMLGQLHGTTPEADEELKAFVKAFKG”, the “soluble on expression in E. coli” value was “not soluble”.
Under “MSLDNPNSSIFADLLAKASELENIIVTLQHKIQGGYYFLNDIEIISEDDARNFDVELVRLKGICNHMQRYNTKAKMRNIDWPIDVVKTAMTETRSKVFETLDLMKELDGFRDLVSYLRIALSNVNDNDLKTEIISSIDGIKEVINKGKQARDAYKLKLEALKDRYATWYMEAYLKAHISEIDHGKKSAVMLSTEKQLCDIIKNASFINPSRYDNWLRKMNLLKVVNSSVNKNAILSVPTSVDGFNPSMQKDELPELEDLKDELKEIYAEYEQGFHDALEDPTILRNKEMLTQEERSTIQQFIDGNITLNPQYARILIDIINKLQRSFTKVEINHNEMLKIFSRPMTKQQALDALAAYIDNHSRGHKPEDIRIIVKEGHHHHHH” stands “soluble”.
In the case of “STTIYDLKKQKDKLLKFYAESDEQILMKNRKTLHKAKNEDLDRVLKEWIRQRRSEHMPLNGMLIMKQAKIYHNELKIEGNCEYSTGWLQKFKKRHGIKFLKTCGNKASAGHEATEKFTGKFSNDDEQDGNFEGFSMSSEKKIMSDLLTYTKNIHPETVSKLEEEDIKDVFNSNNEAPVVHSLSNGEVTKMVLNQDDHDDNDNEDDVNTAEKVPIDDMVKMCDGLIKGLEQHAFITEQEIMSVYKIKERLLRQKASLMRQMTLKETFKKAIQRNASSSLQDPLLGPSTASDASSHLKIK”, the “soluble on expression in E. coli” value is “soluble”.
Next, “MGSDKIHHHHHHMAATLKLSQLISALSYALDITEGQPEGHCVRSCWIGMHIGRALGLAPQELWDLYYAILLKDLGCSSNAARICELYRTDDRSFKQDFKQVGASLPQMLGFVFSHTGTHAAGWRERAASVVQVLRRGKEMADELINTRCHRGADIARQLRFNENVANGIQYLDEHWDGSGRPLGLQRDAIPLNARIALLAQVIDVFHVTHGRHAALDEAVRRGGGWFDPELVAAFRGASRDTAFWQRLESDDIERAVLALEPAQCTVPLDEDYMDEIAEGFGQVVDSKSPFTAGHSQRVGHYADRIGEELGLSPQRRRWLKRGALLHDVGKLGVSNTILDKPGKLTPEEWEAVKLHASHTETILGRIESFAELAKVAGAHHERLDGKGYPRGLMASEIALETRVITTADIFDAIHAARPYHPENPVPETLDIMRKNLGSALDPACFEALEAVLREEDALESDAICLT”: “not soluble”; “MKQFNLIATSGQGIEALVAKELNNLGYQTRTENGFVRFSGNQRDILKTNIWLRTADRIKILVGEFHTLRFDDLFESVKALPWSELINWDDQFPVMEAHSRDSQLFSVPDIQRITKKAIVEALRSQTGHEDLPETGKHVGIDIRIDKNNVRIMIDTSGESLFKRGYRTEHGGAPLKENFAAALVLLTNWFTDNPFVDPVCGSGTIPIEAALIGKNIAPGINRTFEIESWAWFDKKLSQDVREEADILAKYDQPLDISGYDIDGNMIRISKENAKKAGLYNDIAFKQLAVKDWQTDKINGILVANPPYGQRLGEIEDARQIYQQMGSIYNQMSTWSKYILTSDEKFEQFYGKKATKKRKLYNGPIRTDLYQYWGKKVR”: “not soluble”; “MSLERSLSMELVRVTEAAALASARWMGRGKKDEADEAATSAMRDVFDTVPMKGTVVIGEGEMDEAPMLYIGEKLGNGYGPRVDVAVDPLEGTNILASGGWNALTVIAVADHGTLLNAPDMYMQKIAVGPEAVGCIDIEAPVIDNLKAVAKAKNKDVEDVVATILNRERHAKIISELREAGARIKLINDGDVAGAINTAFDHTGVDILFGSGGAPEGVLSAVALKALGGEIIGKLLPQSEEEITRCHKMGLDLSKVLRMEDLVKGDDAIFAATGVTDGELLKGVQFKGSVGTTESLVIRAKSGTVRFVDGRHSLKKKPNLVIRPEGGSHHHHHH”: “soluble”.
Under “MGSDKIHHHHHHMSIRIGNAPCSWGVEFADDPRNPTWRSVLKDCAEAGYKGIELGPVGFMPEDPVELGEALAEHDLDLIGGVVFRAYHDPAAWEDVVDATHRTARALRAHGAQHLVLIDSISPRRAPTAGRAAEAEQMDKAEWTAYRNRIAESARIGAEEYGLTVGIHAHAAGFMDFEPELERLLSEVDESLLKICFDTGHHSYAGFDPVAFMKRHVGRISYMHFKDIDPKVKAEVIANRTGFYEACGQGIFCNLGLGDVDFPAVRQVLLEAGFAGWCTVEQDCDPTLDPDPVGDALKNREYLETIGFN” stands “not soluble”; under “MSLKTLENHNRIKVTVNGREIEVYDNLTILQALLQEDIHIPHLCYDIRLERSNGNCGLCVVTLISPDGERDVKACQTPIKEGMVICTNTPKLENYRKIRLEQLLSDHNADCVAPCVMTCPANIDIQSYLRHVGNGDFEAAIRVIKERNPFPIVCGRVCPHTCESQCRRNLVDAPVAINYVKRFAADWDMARPEPWTPEKKPPTGKKIAIVGAGPSGLSAAYYSAIKGHDVTVFERQPHPGGMMRYGIPEYRLPKAILDKEIEMIKKLGVKIMTEKALGIHIRLEDLSKDFDAVYLAIGSWQATPMHIEGEKLDGVWAGINYLEQVAKNVDIPLGDNVVVIGGGNTAIDCARTALRKGAKSVKLVYRCTREEMPAAPYEVEEAIHEGVEMIFLMAPTKIIVKDGKKKLVCIRMQLGEPDRSGRRRPVPIEGSEVEIDADTIIGAIGQSTNTQFLYNDLPVKLNKWGDIEVNGKTLQTSEYNIFAGGDCVTGPATVIEGHHHHHH”, “soluble”.
As to “MDSSQVPNPVLVLVGSPRRDGNSALLAQAVAEGARQSGAAATLLFLDDYIAGFLTDEKEADARRPDDRYGELFFDHFLPARAVVLCTPVYWYGMSAQAKAFFDRSFTYYSASHPRHAEVLRRMTGKRLALAVSSEETYPGAALGIVHQLQEFTRYTHSQFVGMVHGAGNRRGEVAHDPRRPLQAAHRLGHDLLSLPYSDYRIDSPRDHQVWPGAPA”, the “soluble on expression in E. coli” value was “not soluble”.
Next, “MLMPKRTKYRKQMKGRNRGKAHRGNSIAFGDIAIKAIEHGRIDSRQIESARVAMTRHIKRAGKVWIRVFPDKPLTAKPLETRMGKGKGSVEKWVMNIKPGRIVYEMLGIEEGLAREALALAQSKLPFKTKIVTCESENEIYLEHHHHHH”: “soluble”.
Under “MSLDNQLINSIIEKYQFSKKQIEAVLTLLEEKNTVPFIARYRKEQTGGLDEVQIKQIDDEYQYMVNLQKRKEEVIKNIEQQGLLTEELKKDILKQNKLQRVEDLYRPFKQKKKTRATEAKRKGLEPLAIWMKARKHEVSIEEKAQQFINEEVQSVEDAIKGAQDIIAEQISDNPKYRTKILKDMYHQGVLTTSKKKNAEDEKGIFEMYYAYSEPIKRIANHRVLAVNRGEKEKVLSVKFEFDTTSVEDFIARQEINHNNVNRSYILEAIKDSLKRLIVPSIEREIHADLTEKAENHAIDVFSENLRNLLLQPPMKGKQILGVDPAFRTGCKLAVINPFGTFIAKGVIYPHPPVSKKEAAEKDFVQMVKAYDVQLIAIGNGTASRETEQFVADLIKKHQLPVQFIIVNEAGASVYSASEIARDEFPDFQVEERNAVSIGRHVQDPLSELVKIDPKSIGVGQYQHDFFQEGHHHHHH” stands “soluble”; under “MMIMNNFDEKKLIQEFSKIQSELSPRIKLENNFQIEEIQFIAGVDLAYWNVNKTKYGTCCIVIIDYGTKEVVEKVYSYGEIPIPYIPGFLAFRELPLIIEAVKKLTKQPDIYFFDGNGYLHYRHMGIATHASFLLNKPTIGVAKSYLKIRDVDFIMPENLKGSYTDIVINNEVYGRTLRTTKNVKPIFVSCGNWIDLDTSTEIVMNCINNESRLPIPVRLADLETHKMRKKLMEGLEHHHHHH”, “not soluble”.
